In the RNAGym collection of RNA variant scans (doi:10.7554/elife.80360) one finds self-cleavage data, which are given here for 38 variants.

B1: Hairpin Ribozyme (parent)
chain: GUCCUCUUUCACGUGCGCGUGAAAGAGAGAAGUGAACCAGAGAAACACACGUUGUGGUAUAUUACCUGGUA

Variants of B1 are the subject of this series. Kind of series: self-cleavage, relative activity (ratio to wild type); higher = more cleavage; co-transcriptional.
Turning to GUCCUCUUUCACGUGCGCGUGAAAGAGAGAAGUGAACCAGAGAAACACACCUUGUGGUAUAUUUCCUGGUA [G51C A64U], the self-cleavage was determined as 0.0968.

On to GUCCUCUUUCACGUGCGCGUAAAAGAGACAAGUGAACCAGAGAAACACACGUUGUGGUAUAUUACCUGGUA [G21A G29C], for which the self-cleavage was found to be 0.168.

Consider GUCCUCUUUCACGUGCGCGUGAAAGAGAGUAGUGAACCAGAGAAACACACGUUUUGGUAUAUUACCUGGUA [A30U G54U], for which the self-cleavage was 0.165. Consider GUCCUCUUUUACGUGCGCGUGAAAGAGAGAAGUGAACCAGAGACACACACGUUGUGGUAUAUUACCUGGUA [C10U A44C], for which the self-cleavage was found to be 0.135. With GUCCUCCUUCACGUGCGCGUGAAAGAGAUAAGUGAACCAGAGAAACACACGUUGUGGUAUAUUACCUGGUA [U7C G29U], the self-cleavage was found to be 0.178. Regarding CUCCUCUUUCACGUGCGCGUGAAAGAGAGAAGUGAACCAGAGAAACACACGUUGUGGUAUAUAACCUGGUA [G1C U63A], the self-cleavage stood at 0.194. With GUCCUCUUUCACGUGCGCGUGAAAGCGAGAAGUGAACCAGAGAAACACACGUUCUGGUAUAUUACCUGGUA [A26C G54C], the self-cleavage stood at 0.243. As for GUCCUCUUUCACGUGCGCGUGAAACAGAGAAGUGAACCAGAGAAACACACGUUGUGGUAUAUUACCUGGUC [G25C A71C], the self-cleavage came to 1.02. On to GUCCUCUUUCACUUGCGCGUGAAAGAAAGAAGUGAACCAGAGAAACACACGUUGUGGUAUAUUACCUGGUA [G13U G27A], for which the self-cleavage came to 0.347.

As for GUCCUCUUUCACGUGCGCGAGAAAGAGAGAAGUGAACCAGAGAAACACACGUUGUGGUAUAUUACCUGUUA [U20A G69U], the self-cleavage was 0.252. With GUCCUCUUUCACGUGCGCGUGAAAGAGAGAAGUGAACCAGAGAAACACACGUUGUCGUCUAUUACCUGGUA [G56C A59C], the self-cleavage is 0.154. Then GUCCUCUUUCACGUGCGCGUGAAAGAGAGAAGUGAACCAGAGAAACACACGUUGUCGUAUCUUACCUGGUA [G56C A61C], with 0.109. With GUCCUCUUUCACGUGCGCGUGAAAGAGAGAAGUGAACCAGAGAAACAAACGUUGUGGUAUAUUACCUGGCA [C48A U70C], the self-cleavage is 0.27.

GUCCUCUUUCACGUGCGCGUCAAAGAGAGAAGUGAACCAUAGAAACACACGUUGUGGUAUAUUACCUGGUA [G21C G40U]: the self-cleavage was 0.17. On to GUCCUCUUUCACGUGCGCGUGAAAGCGAGAAGUGAACCAGAGAAACACACGUUGUGGUAUAUUACCUGGUU [A26C A71U], for which the self-cleavage worked out at 0.567. For GUCCUCUUGCACGUGCGCGUGAAAGAGAGAAGUGAACCAGAGAAAUACACGUUGUGGUAUAUUACCUGGUA [U9G C46U], the self-cleavage stood at 0.0772. With GUCCUCUUUCACGUGCGCUUGAAAGAGAGAACUGAACCAGAGAAACACACGUUGUGGUAUAUUACCUGGUA [G19U G32C], the self-cleavage came out at 0.137. GUCCUCAUUCACGUGCGCGUGAAAGAGAGAAGUGAACCAGAGAAAGACACGUUGUGGUAUAUUACCUGGUA [U7A C46G]: the self-cleavage stood at 0.108.

With GUCCUCUUUCACGUGCGCGUGAAAAAGAGAAGUGAACCAGAGAAACACACUUUGUGGUAUAUUACCUGGUA [G25A G51U], the self-cleavage was 0.724. With GACCUCGUUCACGUGCGCGUGAAAGAGAGAAGUGAACCAGAGAAACACACGUUGUGGUAUAUUACCUGGUA [U2A U7G] the figure was 0.197; with GUCCUCUUUCACGUGCGCGUGAAUGAUAGAAGUGAACCAGAGAAACACACGUUGUGGUAUAUUACCUGGUA [A24U G27U], 0.199. With GUCCUCUUUCACGGGCGCGUGAAAGAGAGACGUGAACCAGAGAAACACACGUUGUGGUAUAUUACCUGGUA [U14G A31C] the figure was 0.267.

With UUCCUCUUUCACGUGCGCGUGAAAGAGAGAAGUGAACCAGAGAAACACACGUUGUGCUAUAUUACCUGGUA [G1U G57C], the self-cleavage turned out to be 0.145. On to GUCCUCUUUCACGUGCGCGUGAAAGAGAGAGGUGAACCAAAGAAACACACGUUGUGGUAUAUUACCUGGUA [A31G G40A], for which the self-cleavage was found to be 0.179. Turning to GUCCUCUUUCACGUGCGCGUAAAAGAGAGAAGUGAACAAGAGAAACACACGUUGUGGUAUAUUACCUGGUA [G21A C38A], the self-cleavage came to 0.208. Consider GUCCUCUUUCACGUCCGCGUGUAAGAGAGAAGUGAACCAGAGAAACACACGUUGUGGUAUAUUACCUGGUA [G15C A22U], for which the self-cleavage was determined as 1.01.

GUCCUCUUUCAUGUGCGCGUGAAAGAGAGAAGUUAACCAGAGAAACACACGUUGUGGUAUAUUACCUGGUA [C12U G34U]: the self-cleavage came out at 1.18. Take GUCCUCUUUCACGUGCGCGUGAAAGAGAGAAGUGAACCAGAGAAUCACACGUUGUGGUAUAUUACCUGGCA [A45U U70C]: the self-cleavage is 0.056. With GUCCUCUUUCGCGUGCGCGUGAAAGAGAGAAGAGAACCAGAGAAACACACGUUGUGGUAUAUUACCUGGUA [A11G U33A] the figure was 0.0249. For GUCCUCUUUCACGUGCGGGUGAAAGAGAGAAGUGAUCCAGAGAAACACACGUUGUGGUAUAUUACCUGGUA [C18G A36U], the self-cleavage came to 0.728. Consider GUCCUCUUUCCCGUGCGCGUGAAAGAGAGAUGUGAACCAGAGAAACACACGUUGUGGUAUAUUACCUGGUA [A11C A31U], for which the self-cleavage was 0.18.

Take GUCCUCUUUCACGUGCGCGUGAAAGAGAGAAGUGAACCAGAGAAACACACGUUUUGGGAUAUUACCUGGUA [G54U U58G]: the self-cleavage was 0.401. For GUCCUCUUUCACGUGCGCGAGAAAGAGAGAAGUGAACCAGAGAAACACACGUUGUGGUAUAUUACCUGGUG [U20A A71G], the self-cleavage turned out to be 0.89. On to GUCCUCUUUCACGUGCGCGUGAAAGAGAGAAGUGAACCAAAGAAACACACGUUGUGGUAUAAUACCUGGUA [G40A U62A], for which the self-cleavage was found to be 0.12. On to GUCCUCUUUCACGUGCGCGUGAAAGCGAGAAGUGAACCAGAGAAACACAGGUUGUGGUAUAUUACCUGGUA [A26C C50G], for which the self-cleavage worked out at 0.174. Regarding GUACUCUUUCACGUGCGCGUGAAAGAGAGAAGUGAACCAGAGAAACACACGUUGUGGUAUCUUACCUGGUA [C3A A61C], the self-cleavage stood at 0.16.

For GUCCUCUAUCACGUGCGCGUGAAAGAGAGAAGUGAACCAGAGAAACACGCGUUGUGGUAUAUUACCUGGUA [U8A A49G], the self-cleavage turned out to be 0.366.

As to UUCCUCUUUCACGUGCGCGUGAAAGAGAGAAGUGAACCAGAGAAACACACGUCGUGGUAUAUUACCUGGUA [G1U U53C], the self-cleavage is 0.179.
